We go through one substance from patent US20170218081A1.

The test concerns the target Bovine submaxillary mucin (bovine). As to the kind of experiment: SPR, BSM immobilised on CM5 chip. (In general: In SPR one partner is held on a chip, and binding of the other changes the refractive index at the surface.)

The Kd is a measure of binding affinity in units of concentration. Low values mean a tighter complex, high ones a looser complex. On to CC49.scFv, for which the dissociation constant Kd came out at 30 nM.
